Test results: patent US20250236667A1, “ANTIBODIES TO MUTANT CALRETICULIN AND USES THEREOF” (CENTRAL ADELAIDE LOCAL HEALTH NETWORK INC, priority 2021, published 2025)

Test system: healthy cord blood CD34+ cells
Assay: cells
Assay type: cell-based, human
Experimental: Umbilical cord blood (UCB) was collected with written consent from full-term deliveries at the Women's Health Unit, Lyell McEwin Hospital (Adelaide, South Australia) or the Department of Obstetrics and Gynecology, Medical University of Graz (Austria) with institutional review board approval (IRB approval: 31-322 ex 18/19; HREC/20/WCHN/65). Samples were processed using a Ficoll-Paque (GE Healthcare) density gradient to isolate mononuclear cells (800×g, room temperature, 30 minutes, deceleration off), followed by red cell lysis (ammonium-chloride-potassium lysing buffer) to remove remaining red blood cells. CD34 enrichment was performed by magnetic cell separation using CD34 Microbead kit (Miltenyi Biotech). Alternatively, purified CD34+ cells from cord-blood were purchased from Lonza. CD34+ cells with a purity above 90% were either cryopreserved or directly cultured in serum-free stem cell retention media (StemSpan SFEMII, Stemcell Technologies, Vancouver, BC, Canada) supplemented with human recombinant SCF, TPO, FLT3, IL-6 (all 20 ng/mL), UM729 (1.75 uM) and StemReginin 1 (SR1, 300 nM). All cytokines and SRI were purchased from PeproTech (Rocky Hill, NJ, USA) whereas UM729 was purchased from Stemcell Technologies.
For megakaryocyte differentiation assays, CD34+ cells derived from cord blood or from patient peripheral blood mononuclear fractions were plated in Megacult (MegaCult™-C Collagen and Medium with Lipids) with added IL-3 and IL-6 (10 ng/ml) in the presence or absence of 50 ng/mL TPO. Cells were plated at an initial density of 1800 cells/well and cultured for 12 days at 37° C. and 5% CO2. […] Culture media was replenished every 3 days and cells were assessed for megakaryocyte differentiation on day 12 using anti-human CD41/61 PE-Cy7 (Clone A2A9/6) and CountBright beads (Thermo Fisher) to enumerate cell numbers. […] Cells were seeded at approximately 100 cells per well and were cultured in the presence of 20 μg/mL 4D7 or control IgG antibody and scored for colony and blast forming units at 12-14 days.

B1: 4D7: rat monoclonal IgG2a antibody against the mutant CALR neoepitope; VH SEQ ID NO: 5, VL SEQ ID NO: 7 (antibody, listed as Rattus rattus, V domains shown)
VH: QVQLQQSGAELAKPGSSVKISCKASGYTFTNYDMSWIKQRPGQALEWIGAINPGNGVTDYNEKFRGKATLTVDKSSSTAFMQLSSLTPEDTAVYHCAREYRDNYGYFDYWGQGVMVTVSS
VL: DIVLTQTPVSLSVTLGDQASISCRSSQSLEYSDGYTYLDWFLQKPGQSPQLLIYEVSSRFSGVPDRFIGRGSGTDFTLKISRVEPEDLGVYYCFQATHDPFTFGSGTKLEIK
  effect on normal hematopoiesis: no effect
